From the supplement of paper PMC9732359
± gives the uncertainty stated by the source.

Test: protein stability index of a GFP-peptide fusion (yeast GPS) (PSI 1-4); higher = more stable; sorted into four equal gates, so the index is relative within each strain
Summary of the method: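 For each peptide, the protein stability index sums the read frequency in every gate after multiplying it by the gate number. Read frequencies came from plasmids that were PCR-amplified from each gate and Illumina-sequenced, with reads assigned to strains by barcodes. The gates were four equal bins of GFP/Cherry fluorescence ratio applied to mid-log yeast in leucine-free medium carrying a pooled library of tiled 17-residue yeast protein peptides fused downstream of GFP on a Cherry-expressing plasmid.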

Sequence	protein stability index (doa10∆)	protein stability index (pdr5∆)	protein stability index (san1∆)	protein stability index (ubr1∆)
LRELSCCINAAFLALVD [RRP46]	2.38 ± 0.059	2.81 ± 0.074	2.88 ± 0.051	2.65 ± 0.065
QSDSAKVEIKKVNSRDD [PRP28]	3.08 ± 0.079	3.44 ± 0.067	2.73 ± 0.088	2.9 ± 0.12
SRPLKKVKILEQIDENW [SWI3]	2.94 ± 0.077	3.11 ± 0.067	2.82 ± 0.072	2.99 ± 0.044
SQIIARNEEILRDIGEC [SMC2]	2.79 ± 0.077	2.46 ± 0.091	2.85 ± 0.062	3.07 ± 0.084
NWAKFTATASLGVIHKG [RPN2]	1.81 ± 0.06	1.81 ± 0.053	1.91 ± 0.069	2 ± 0.061
ELNEEKKRLMDIDDELN [SMC2]	3.23 ± 0.095	3.42 ± 0.14	2.69 ± 0.15	3.51 ± 0.069
SMMSDGIEHFDIPPPAI [RPO31]	1.97 ± 0.16	1.81 ± 0.13	1.92 ± 0.17	2.06 ± 0.15
ACDPSEIEPILMEIHNI [RGR1]	2.82 ± 0.13	2.74 ± 0.1	3.16 ± 0.08	2.92 ± 0.067
NETKKRNFLETVELQVG [RPL1A]	2.96 ± 0.24	2.72 ± 0.23	–	–
AMTAAEHGLHAPAYAWS [CYT1]	3.16 ± 0.13	3.31 ± 0.097	2.8 ± 0.13	3.27 ± 0.064
KKFATVPTGGASSAAAG [RPP2B]	3.17 ± 0.13	3.21 ± 0.14	2.89 ± 0.079	3.06 ± 0.067
ISSGLLYLQDSNDKFVH [SRB8]	1.94 ± 0.087	1.48 ± 0.13	1.25 ± 0.15	1.14 ± 0.07
MPNDNKTPNRSSTPKFT [SIR4]	2.66 ± 0.1	2.55 ± 0.19	3 ± 0.062	3.09 ± 0.086
VQLPILKIIYTGLCSFD [YJL039C/NUP192]	1.41 ± 0.055	1.76 ± 0.043	1.26 ± 0.12	1.76 ± 0.058
DSIDLAPNTLTNILISP [YML103C/NUP188]	1.58 ± 0.11	1.87 ± 0.081	1.55 ± 0.15	1.56 ± 0.19
NDSNPSFSFSIPSKNTP [YLR335W/NUP2]	2.42 ± 0.048	2.13 ± 0.04	2.58 ± 0.046	2.64 ± 0.047
LLVPASDLINKDLVKNN [FAS1]	1.76 ± 0.086	2.95 ± 0.097	3.11 ± 0.12	2.83 ± 0.11
PYMPYYYYYHPMNAPTP [DSN1]	2.52 ± 0.043	2.71 ± 0.043	2.64 ± 0.045	2.69 ± 0.032
KKVMPAIVVRQAKSWRR [RPL23A]	2.84 ± 0.14	2.85 ± 0.088	2.64 ± 0.16	2.99 ± 0.063
HFPINVNIVEKDGAKFI [RPL9A]	2.58 ± 0.069	2.57 ± 0.079	2.53 ± 0.065	2.5 ± 0.07
QPQPQPQQQQQHLQFNG [YDL088C/ASM4]	2.6 ± 0.036	2.78 ± 0.038	2.5 ± 0.051	2.919 ± 0.024
EFEYDDEPDEQGNPKKR [CYT1]	3.21 ± 0.076	3.28 ± 0.073	3.04 ± 0.07	3.15 ± 0.07
NFNKFFKIWHGEINKIC [PCI8]	1.24 ± 0.049	1.13 ± 0.046	1.15 ± 0.079	1.14 ± 0.059
FGLGYGDVGKNHITEFP [RPC31]	3.17 ± 0.11	3.22 ± 0.11	3.38 ± 0.12	3.56 ± 0.12
PAEVGRAIRSEKYGKQV [BRR2]	3.27 ± 0.22	3.15 ± 0.073	–	–
RNVTIQLENADTGTLDT [RPN2]	3.11 ± 0.095	3.2 ± 0.082	3.13 ± 0.069	3.2 ± 0.093
ASSNFPFLNETKPGVYY [RPC82]	3.09 ± 0.12	2.43 ± 0.09	2.73 ± 0.091	2.99 ± 0.072

Sequence	protein stability index (doa10∆)	protein stability index (pdr5∆)	protein stability index (san1∆)	protein stability index (ubr1∆)
LIAEETNNKKLLEKANN [SMC3]	2.41 ± 0.055	2.68 ± 0.075	2.38 ± 0.073	3.32 ± 0.063
GTSVISMKYDNGVIIAA [PRE4]	2.05 ± 0.19	–	–	–
YNNKVGVAASQGSMSER [SIR2]	1.79 ± 0.066	2.04 ± 0.063	2.49 ± 0.12	1.85 ± 0.064
DEEASYKLGKVKKVQLG [RPS4A]	2.96 ± 0.1	3.1 ± 0.069	2.9 ± 0.063	2.98 ± 0.061
QTMQLIKNVQDLLILTR [SRB6]	1.51 ± 0.087	1.8 ± 0.091	–	2.09 ± 0.086
MASTAVMMDVDSSGVND [RPN3]	3.17 ± 0.19	3.51 ± 0.2	–	3.26 ± 0.091
LILQRLKDLNLTVSIKI [RGR1]	1.76 ± 0.073	1.96 ± 0.071	2.65 ± 0.072	1.98 ± 0.052
YGIPLEFYNEMHRPVHF [PRP8]	1.85 ± 0.074	2.04 ± 0.1	1.98 ± 0.14	2.64 ± 0.15
NTNTENENRNTGAGVDV [SNF11]	2.9 ± 0.062	2.98 ± 0.045	2.66 ± 0.044	2.88 ± 0.044
ENLMVQRTCLMTVTFLI [YCS4]	2.09 ± 0.053	1.97 ± 0.045	2.16 ± 0.07	2.04 ± 0.038
VTGFAEVGPWGSARTRW [FAS2]	2.24 ± 0.079	3.03 ± 0.086	2.73 ± 0.093	2.06 ± 0.071
VCLMQISTRERDYLVDT [RRP6]	3.3 ± 0.22	3.4 ± 0.16	3.49 ± 0.088	2.99 ± 0.089
QRTTTGARVFGALKGAS [RPL5]	2.88 ± 0.2	2.52 ± 0.2	–	3.05 ± 0.16
SLNFIPITASTSRVFAK [YML103C/NUP188]	–	1.58 ± 0.28	2.06 ± 0.26	–
RAGVTHVLSRLSYISAL [RET1]	1.47 ± 0.074	1.26 ± 0.068	1.22 ± 0.11	1.23 ± 0.081
ITQIVEKDFCTSCLQNN [SRB8]	2.35 ± 0.065	2.71 ± 0.077	2.68 ± 0.081	2.28 ± 0.049
SSWQIYSDENDPSISNN [RRP4]	2.48 ± 0.12	3.16 ± 0.11	3.06 ± 0.072	3.33 ± 0.14
NFKMLVLLATWNLEKWR [IRR1]	1.32 ± 0.053	1.3 ± 0.071	1.5 ± 0.12	1.56 ± 0.038
KTKYILQRPTATDEESV [CSN12]	3.18 ± 0.084	3.12 ± 0.081	2.95 ± 0.17	3.14 ± 0.2
IGLRQFQQIQYENKQLY [POP1]	2.84 ± 0.085	2.81 ± 0.061	2.92 ± 0.048	2.79 ± 0.047
AAEKSFKPPKNKYKVVR [SEC65]	3 ± 0.28	3.08 ± 0.19	3.05 ± 0.12	3.15 ± 0.12
KNRSNRKRFHSQSKGTV [YOR098C/NUP1]	3.21 ± 0.18	3.11 ± 0.18	2.89 ± 0.16	3.26 ± 0.19
QAPSELELQVAKTFIDL [RPS7B]	3.06 ± 0.054	3.13 ± 0.04	2.89 ± 0.072	2.99 ± 0.046
DRAQNSYQPMYQRPMQV [SSN3]	1.55 ± 0.047	1.73 ± 0.057	1.55 ± 0.16	2.64 ± 0.041
DLKASQRVCLRSDSYML [RPT6]	2.92 ± 0.1	3.08 ± 0.077	2.92 ± 0.075	2.82 ± 0.051
MQSTSPAVKQWDLLPEP [SWI1]	2.73 ± 0.19	1.5 ± 0.11	1.36 ± 0.27	1.07 ± 0.14
ALAFGYVKSLHKQISAE [SIN4]	1.65 ± 0.056	2.21 ± 0.064	1.78 ± 0.11	2.32 ± 0.043
